Results reported in PMC10397247.

Tests used:
Test in all cases: two-hybrid library CCNG1;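 note: natural log of median RNA to DNA barcode read ratio; higher means stronger binding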
[1] = molecular target: T1, 4H1406-bH
T1 chain: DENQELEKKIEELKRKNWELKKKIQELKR

[2] = molecular target: T2, 4H3592-bH
T2 chain: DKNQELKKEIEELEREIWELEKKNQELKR

[3] = molecular target: T3, 4H3601-bH
T3 chain: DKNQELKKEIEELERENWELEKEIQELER

[4] = molecular target: T4, 4H3907-bH
T4 chain: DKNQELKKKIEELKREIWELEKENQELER

[5] = molecular target: T5, 4H4038-bH
T5 chain: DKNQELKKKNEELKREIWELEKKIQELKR

[6] = molecular target: T6, 4H2233-bN
T6 chain: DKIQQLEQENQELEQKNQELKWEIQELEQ

[7] = molecular target: T7, 4H2253-bN
T7 chain: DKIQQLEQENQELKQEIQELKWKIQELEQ

[8] = molecular target: T8, 4H235-bN
T8 chain: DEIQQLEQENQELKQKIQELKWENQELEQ

[9] = molecular target: T9, 4H2444-bN
T9 chain: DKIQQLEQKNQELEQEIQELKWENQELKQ

[10] = molecular target: T10, 4H2518-bN
T10 chain: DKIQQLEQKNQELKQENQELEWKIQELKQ

[11] = molecular target: T11, 4H2585-bN
T11 chain: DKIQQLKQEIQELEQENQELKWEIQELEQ

[12] = molecular target: T12, 4H264-bN
T12 chain: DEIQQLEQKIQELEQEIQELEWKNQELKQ

[13] = molecular target: T13, 4H2760-bN
T13 chain: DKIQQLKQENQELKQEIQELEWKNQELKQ

[14] = molecular target: T14, 4H2859-bN
T14 chain: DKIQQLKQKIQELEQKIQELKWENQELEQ

[15] = molecular target: T15, 4H2931-bN
T15 chain: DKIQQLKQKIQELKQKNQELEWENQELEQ

[16] = molecular target: T16, 4H3041-bN
T16 chain: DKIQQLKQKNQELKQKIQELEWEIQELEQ

[17] = molecular target: T17, 4H3297-bN
T17 chain: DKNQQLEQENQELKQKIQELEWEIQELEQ

[18] = molecular target: T18, 4H3364-bN
T18 chain: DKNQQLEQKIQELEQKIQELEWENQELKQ

[19] = molecular target: T19, 4H3381-bN
T19 chain: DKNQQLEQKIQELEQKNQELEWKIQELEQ

[20] = molecular target: T20, 4H349-bN
T20 chain: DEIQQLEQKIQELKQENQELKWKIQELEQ

[21] = molecular target: T21, 4H56-bN
T21 chain: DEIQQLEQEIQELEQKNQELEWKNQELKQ

[22] = molecular target: T22, 4H730-bN
T22 chain: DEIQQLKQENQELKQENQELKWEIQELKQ

[23] = molecular target: T23, 4H796-bN
T23 chain: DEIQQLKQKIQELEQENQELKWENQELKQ

[24] = molecular target: T24, 4H932-bN
T24 chain: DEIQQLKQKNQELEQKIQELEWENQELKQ

[25] = molecular target: T25, 4H949-bN
T25 chain: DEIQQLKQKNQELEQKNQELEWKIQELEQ

[26] = molecular target: T26, 4H2162-bN
T26 chain: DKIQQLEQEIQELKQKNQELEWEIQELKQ

[27] = molecular target: T27, 4H2444-bA
T27 chain: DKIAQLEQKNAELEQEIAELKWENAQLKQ

B1: 4H1406-bH (peptide)
chain: DENQELEKKIEELKRKNWELKKKIQELKR
Work on B1 yielded an interaction score [1] of -0.652, an interaction score [2] of 1.08 and an interaction score [3] of 0.0362. It also gave an interaction score [4] of 1.11 and an interaction score [5] of -0.136.

B2: 4H2233-bN (peptide)
chain: DKIQQLEQENQELEQKNQELKWEIQELEQ
With B2 the interaction score [6] was -1.12, the interaction score [7] was -0.322 and the interaction score [8] was -0.762. For the same binder, the interaction score [9] was -0.713, the interaction score [10] was 1.97 and the interaction score [11] was -2.3. It also gave an interaction score [12] of -0.163, an interaction score [13] of -0.863 and an interaction score [14] of -0.431. It also gave an interaction score [15] of -0.485, an interaction score [16] of -1.98 and an interaction score [17] of -1.34. The interaction score [18] was -0.324, the interaction score [19] was -0.889 and the interaction score [20] was -0.452. The interaction score [21] was -0.577, the interaction score [22] was -0.539 and the interaction score [23] was -0.624. For the same binder, the interaction score [24] was -1.19 and the interaction score [25] was -1.36.

B3: 4H2162-bN (peptide)
chain: DKIQQLEQEIQELKQKNQELEWEIQELKQ
With B3 the interaction score [26] was 1.61, the interaction score [6] was -0.887 and the interaction score [7] was -0.654. It also gave an interaction score [8] of -0.0614, an interaction score [27] of -0.359 and an interaction score [9] of -1.27. It also gave an interaction score [10] of 0.614, an interaction score [11] of 0.615 and an interaction score [12] of -0.799. The interaction score [13] was -0.495, the interaction score [14] was 0.571 and the interaction score [15] was -1.12. The interaction score [16] was 1.18, the interaction score [17] was -0.173 and the interaction score [18] was -0.416. The interaction score [19] was -0.622, the interaction score [20] was 0.391 and the interaction score [21] was -0.33. For the same binder, the interaction score [22] was -0.649, the interaction score [23] was -0.418 and the interaction score [24] was -0.305. For the same binder, the interaction score [25] was -1.05.
